Data on eight molecules can be found in patent publication US20240067729A1 (PALLEON PHARMACEUTICALS, published 2024).

In experiment [1] the target is T1, human PD-L1, his tagged (hPD-L1-his) (human, UniProt Q9NZQ7 19-238, limits assumed).
T1 construct: also called huPD-L1-His; recombinant human PD-L1; not shown: his tag
Put plainly: BLI (ForteBio Octet), IgG on AHC sensor, hPD-L1-his analyte, 1:1 fit. As for the experimental part:
(§1) Characterization of chimeric anti-PD-L1 antibodies. ForteBio octet binding of purified chimeric antibodies and recombinant hPD-L1-his and cPD-L1-his was measured. Chimeric human antibodies were captured on AHC (Anti-human IgG-Capture) Biosensor, hPD-L1-his or cPD-L1-his analytes were titrated from 100 nM in a 2× series dilution. The buffer reference was subtracted from the signal and aligned to the baseline. KD, Kon and Koff values were generated using 1:1 fitting model as described above.

The target of experiment [2] is T2, human PD-L1 expressed on cells (HCC827, NCI-H292, CHO-PD-L1, engineered CHO-K1) (human, UniProt Q9NZQ7 19-290). Put plainly: cell-based or functional assay.
Experiment [3] addresses T2, human PD-L1 expressed on cells (HCC827, …). Description: flow cytometry on NCI-H292 cells, apparent Kd. The protocol:
(§2) FIG. 14 is a graph showing binding of chimeric PD-L1 antibodies to HCC827 (FIG. 14A) and NCI-H292 (FIG. 14B) lung epithelial cell lines. Binding was measured using a FACS analysis with a […] secondary antibody. MFI=mean fluorescence intensity.
(§3) Purified chimeric antibodies were evaluated for their ability to bind PD-L1 expressed on two human cancer cell lines. HCC827 and NCI-292 cells were incubated with titrated antibodies for 30 min at 4° C. Cells were washed and incubated with AF647-labeled goat anti-human IgG(H+L) for 30 min at 4° C. Cells were washed, fixed and analyzed on FACSCelesta.
For orientation: A flow cytometer gives signals particle by particle.

For experiment [4] the target is unchanged. Description: flow cytometry on HCC827 cells, apparent Kd. As for the experimental part:
as §2, §3

In experiment [5] the target is T3, cynomolgus PD-L1, his tagged (cPD-L1-his) (cynomolgus (Macaca fascicularis), UniProt G7PSE7 19-238).
T3 construct: also called cyPD-L1-His; Cyno PD-L1
Put plainly: BLI (ForteBio Octet), IgG on AHC sensor, cPD-L1-his analyte, 1:1 fit. The protocol:
as §1
(In general: In BLI a coated tip is dipped into the sample, and binding shifts an interference pattern.)

Experiment [6] concerns the target T2, human PD-L1 expressed on cells (HCC827, …). Description: flow cytometry MFI, CHO-PD-L1 cells (10 nM) against parental CHO cells (100 nM). The protocol:
CHO cells were incubated with 100 nM antibodies and CHO-PD-L1 cells (from Bioassay) with 10 nM antibodies for 30 min at 4° C. Cells were washed and incubated with goat anti-human IgG(H+L) for 30 in at 4° C. The washed cells were fixed and run on FACSCelesta.

The target in experiment [7] is T4, human PD-L1 Fc fusion (hPD-L1-Fc) (human, UniProt Q9NZQ7 19-238, limits assumed).
T4 construct: not shown: Fc part
Put plainly: blocking ELISA: antibody titrated + biotin-hPD-1-Fc on coated hPD-L1-Fc. An excerpt:
The plate was developed with TMB and Stop buffer, the absorbance at 450 nm was read using SpectraMax plate reader. The A450 absorbance was normalized to the control that without antibody for the percentage values. The curve and IC₅₀ were generated using GraphPad Prism software.
Protein A purified chimeric antibodies were examined by size exclusion chromatography and quantified with a UV-Vis spectrophotometer (NanoDrop; mAU=milli absorbance units).
(An ELISA detects its analyte on a solid surface through an enzyme-linked reagent.)

The target in experiment [8] is T1, human PD-L1, his tagged (hPD-L1-his). Put plainly: BLI (ForteBio Octet), hPD-L1-his. The protocol: (§4) Characterization of chimeric anti-PD-L1 antibodies. ForteBio octet binding of purified chimeric antibodies and recombinant hPD-L1-his and cPD-L1-his was measured. Chimeric human antibodies were captured on AHC (Anti-human IgG-Capture) Biosensor, hPD-L1-his or cPD-L1-his analytes were titrated from 100 nM in a 2× series dilution. The buffer reference was subtracted from the signal and aligned to the baseline. KD, Kon and Koff values were generated using 1:1 fitting model as described above. […]

The target of experiment [9] is T3, cynomolgus PD-L1, his tagged …. Put plainly: BLI (ForteBio Octet), cPD-L1-his. The protocol:
as §4

In experiment [10] the target is T1, human PD-L1, his tagged (hPD-L1-his). Put plainly: BLI (ForteBio Octet), hPD-L1-his. As for the experimental part:
as §1
Selected h769 antibodies were tested in the blocking ELISA as described in Example 3 herein. […] Selected h769 humanized PD-L1 antibodies were characterized following removal of the deamidation motif in CDR-L3. FIG. 25 depicts the ForteBio octet binding of purified humanized antibodies and recombinant hPD-L1-his was measured.
The source holds these as a separate data set.

Experiment [11] shares this target. Put plainly: BLI (ForteBio Octet), recombinant human PD-L1.
For experiment [12], the target named is T3, cynomolgus PD-L1, his tagged …. Description: BLI (ForteBio Octet), cPD-L1-his analyte, 1:1 fit. As for the experimental part:
as §1

Bounds are passed on as bounds.

T1 sequence (Q9NZQ7 19-238 limits assumed): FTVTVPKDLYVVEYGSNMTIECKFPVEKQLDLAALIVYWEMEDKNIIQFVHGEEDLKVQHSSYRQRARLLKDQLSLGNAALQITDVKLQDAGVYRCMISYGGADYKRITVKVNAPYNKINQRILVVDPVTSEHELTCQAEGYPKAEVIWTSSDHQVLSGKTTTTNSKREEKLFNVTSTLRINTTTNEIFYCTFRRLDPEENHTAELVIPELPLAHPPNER
T4 sequence (Q9NZQ7 19-238 limits assumed): as above
T2 sequence (Q9NZQ7 19-290, change not shown): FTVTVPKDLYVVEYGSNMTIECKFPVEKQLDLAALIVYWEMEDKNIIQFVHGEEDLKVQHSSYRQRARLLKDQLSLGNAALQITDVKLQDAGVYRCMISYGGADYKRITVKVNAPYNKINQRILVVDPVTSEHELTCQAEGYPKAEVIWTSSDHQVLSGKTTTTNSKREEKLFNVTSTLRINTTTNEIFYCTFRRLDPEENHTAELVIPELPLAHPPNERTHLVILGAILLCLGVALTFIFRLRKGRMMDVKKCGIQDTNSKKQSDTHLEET
T3 sequence (G7PSE7 entry or part of it limits assumed, form in doubt): as the sequence (Q9NZQ7 19-238 limits assumed) above, with A33T, A34S, S62N, R68Q, Q82R, F173L, T185A, T192I, H215L counted along it

B1: 771-hIgG1 (chimeric PAL771) (antibody, V domains shown)
VH: EVQLQESGAELVKPGASVKLSCTASGFNIKDTYMHWVKQRPEQGLEWIGRIDPANGNTKYDPKFPGKATITADTSSNTAYLQLSSLTSEDAAVYYCARPFNYRFYDVYYFDYWGQGTTLTVST
VL: QIVLTQSPAIMSASPGEKVTMTCSASSSVSYMYWYQQKPGSSPRLLIYDTSNLASGVPLRFSGSGSGTSYSLTLSRMEAEDAATYYCQQWSTYPLTFGAGTKLELK
With B1, the Kd in [1] came to 1.43 nM; in experiment [3], 1.17 nM; in experiment [4] it was 1.02 nM; in [5], 1.12 nM. Besides, the “IC50, nM (Function)” value in [2] was determined as 1 nM.

B2: 788-hIgG1 (chimeric PAL788) (antibody, V domains shown)
VH: QVQLQQPGAELVKPGASVKLSCKASGYTFTSNWMNWVKQRPGRGLEWIGRIHPSDSETHYHQKFKSKATLTVDKSSSTAYIQLSSLTSEDSAVYYCAHSSGDYGRDYWGQGTTLTVSS
VL: NIVLTQSPASLAVSLGQRATISCRASESVDSYGNSFMHWYQQKPGQPPKLLIYLASNLQSGVPARFSGSGSRTDFTLTIDPVEADDAATYYCQQNNEDPWTFGGGTKLEIK
By IC50 is commonly meant the concentration that inhibits the measured activity by half. Take B2: in experiment [6], the “Bind PD-L1-CHO/CHO” value was over 100 x. Moreover, the Kd stood at 0.043 nM in experiment [1], 1.68 nM in [3], 1.57 nM in [4] and 0.867 nM in experiment [5]. Moreover, the “IC50, nM (Function)” value in [2] came to 0.9 nM. Moreover, the IC50 in experiment [7] was 2.9 nM.

B3: 767-hIgG1 (chimeric PAL767) (antibody, V domains shown)
VH: EVQLQESGPSLVKPSQTLSLTCSVTGDSITSGYWNWIRKFPGNKLEYMGYISYTGSTYYNPSLKRRISITRDTSKNQYYLQLNSVTTEDTATYYCASQGGWLQAMDYWGQGTSVTVSS
VL: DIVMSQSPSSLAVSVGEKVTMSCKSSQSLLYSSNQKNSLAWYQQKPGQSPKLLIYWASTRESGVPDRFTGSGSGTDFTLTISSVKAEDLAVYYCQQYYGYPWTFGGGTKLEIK
For the molecule B3, the “Bind PD-L1-CHO/CHO” value in [6] is over 100 x. Further, the Kd turned out to be 0.0522 nM in experiment [1], 0.23 nM in experiment [3], 0.26 nM in experiment [4] and 0.266 nM in experiment [5]. The “IC50, nM (Function)” value in [2] turned out to be 0.6 nM. The IC50 in experiment [7] was found to be 2 nM.

B4: 769-hIgG1 (chimeric PAL769) (antibody, V domains shown)
VH: EVQLQESGAELVKPGASVTLSCTASGFNIKDTYMHWVKQRPEQGLEWIGRIDPANDNTKYDPKFQDKATITADTSSDTAYLRLSSLTSEDTAVYYCAREGYGGSYGEGYWGQGTTLTVSS
VL: SIVMTQTPKFLLVSAGDRVTITCKASQSVSNDVIWYQQKPGQSPKLLIYYASIRFTGVPDRFAGSGYGTDFTFTINTVQAEDLAVYFCQQDYNSPWTFGGGTKLEIK
As a reminder, the koff is a measure of how fast the partners let go of each other. For orientation: kon means the second-order rate constant of association. As for B4, in experiment [6], the “Bind PD-L1-CHO/CHO” value was over 100 x. For the same molecule, the Kd came out at 0.64 nM in experiment [1]; 2.59 nM in experiment [8]; 2.92 nM in [9]; 0.12 nM in [3]; 0.17 nM in experiment [4]; 0.55 nM in experiment [5]. Moreover, the koff in [8] worked out at 0.000967 s⁻¹; in experiment [9], 0.000685 s⁻¹. Further, the results for the on-rate constant (kon) in experiment [8] and in experiment [9] were 373000 M⁻¹ s⁻¹ and 238000 M⁻¹ s⁻¹, respectively. In addition, the “IC50, nM (Function)” value in [2] is 0.5 nM. The half-maximal inhibitory concentration (IC50) in experiment [7] is 1.6 nM.

B5: h769-N93T (h769.T), humanized 769-hIgG1 variant (antibody, V domains shown)
VH: EVQLVQSGAEVKKPGATVKISCKVSGFNIKDTYMHWVQQAPGKGLEWMGLIDPANDNTIYAEKFQGRVTITADTSTDTAYMELSSLRSEDTAVYYCAREGYGGSYGEGYWGQGTLVTVSS
VL: EIVMTQSPPTLSLSPGERVTLSCRASQSVSNDLSWYQQKPGQAPRLLIYYASIRFTGIPARFSGSGSGTDFTLTISSLQPEDFAVYYCQQDYTSPWTFGQGTKVEIK
notes: Human IgG1
For the molecule B5, in [10], the Kd is 1.82 nM, the koff is 0.000597 s⁻¹ and the on-rate (kon) was 328000 M⁻¹ s⁻¹. Further, in experiment [11], the Kd is 1.76 nM, the off-rate constant (koff) came to 0.000629 s⁻¹ and the kon amounted to 357000 M⁻¹ s⁻¹.

B6: Avelumab (antibody, human IgG1, lambda, V domains shown)
VH: EVQLLESGGGLVQPGGSLRLSCAASGFTFSSYIMMWVRQAPGKGLEWVSSIYPSGGITFYADTVKGRFTISRDNSKNTLYLQMNSLRAEDTAVYYCARIKLGTVTTVDYWGQGTLVTVSS
VL: QSALTQPASVSGSPGQSITISCTGTSSDVGGYNYVSWYQQHPGKAPKLMIYDVSNRPSGVSNRFSGSKSGNTASLTISGLQAEDEADYYCSSYTSSSTRVFGTGTKVTVLG
Take B6: the Kd in experiment [5] was 0.994 nM; in [12], 1.7 nM.

B7: 752-hIgG1 (chimeric PAL752) (antibody, V domains shown)
VH: EVQLQESGAELARPGASVKLSCKASGHAFTSDSINWVKQRIGQGLEWIGEIYPRSGNPYYNEKFKGKATLTADKSSSTAYMELRSLTSEDSAVYFCATDYYGRYFDVWGTGTTVTVSS
VL: DIQMTQSSFSFSVSLGDRVTIICKASEDIYNRLAWYQQKPGNTPRLLISGATSLETGVPSRFSGSGSGKDYTLSITSLQTEDVATYYCQQYWSTPWTFGGGTKLEIK
As for B7, the Kd was 1.18 nM in experiment [1], 4.98 nM in experiment [3], 3.63 nM in experiment [4] and 3.18 nM in experiment [5]. In addition, the “IC50, nM (Function)” value in experiment [2] was found to be 1.5 nM. Also, in experiment [7], the half-inhibitory concentration (IC50) was 4.6 nM.

B8: 785-hIgG1 (chimeric PAL785) (antibody, V domains shown)
VH: EVQLQESGPELVKPGTSVKMSCKASGYTFTSYVMHWVKQRPGQGLEWIGYINPYNDGSKYNEKFKGKATLTSDTSSSTAYMELSSLTSEDSAVYYCAKQTLDFWGQGTSVTVST
VL: DIVLTQSPASLAVSLGQRATISCRASESVEFYGTTLMQWYQQKPGQPPKLLIYAASNVESGVPARFSGSGSGTDFSLNIHPVEEGDIGMYFCQQSRKVPYTFGGGTKLEIK
With B8, the “Bind PD-L1-CHO/CHO” value in [6] is over 100 x. In addition, the Kd in [1] came out at 1.64 nM; in experiment [3], 0.19 nM; in experiment [4], 0.29 nM; in [5], 0.724 nM. The “IC50, nM (Function)” value in experiment [2] was determined as 0.5 nM. Also, in [7], the IC50 was found to be 1.9 nM.
